How the values were obtained:
[1] = biological target: C-terminal ~65 kDa domain of Vip3Ab1, expressed from Leu222 (Bacillus thuringiensis); experiment: SEC; analytical SEC, TSKgel SuperSW3000, 50 mM sodium phosphate pH 7.0 with 250 mM NaCl, 75 µl/min, 3 µl at 150 µg/ml, fluorescence detection; size from retention time against molecular weight standards; proteins not digested
[2] = biological target: Vip3Ab1 (Bacillus thuringiensis); experiment: as above
[3] = biological target: Vip3Ab1 after overnight processing with H. zea midgut enzymes (~20 kDa and ~65 kDa products together) (Bacillus thuringiensis); experiment: SEC; purified Vip3 protein digested overnight with H. zea gut fluid (50 mM MOPS pH 10, 30 °C), stopped with protease inhibitors, then analytical SEC on TSKgel SuperSW3000 in 50 mM sodium phosphate pH 7.0 with 250 mM NaCl; size from retention time
[4] = biological target: Vip3_AB chimera (N-terminal domain of Vip3Ab1 and C-terminal domain of Vip3Bc1) (Bacillus thuringiensis); experiment: SEC; analytical SEC, TSKgel SuperSW3000, 50 mM sodium phosphate pH 7.0 with 250 mM NaCl, 75 µl/min, 3 µl at 150 µg/ml, fluorescence detection; size from retention time against molecular weight standards; proteins not digested
[5] = biological target: Vip3_BA chimera (N-terminal domain of Vip3Bc1 and C-terminal domain of Vip3Ab1) (Bacillus thuringiensis); experiment: as above
[6] = biological target: the molecule itself; experiment: as above
[7] = biological target: T1, ~65 kDa C-terminal product of Vip3Bc1 after gut enzyme processing (Bacillus thuringiensis, UniProt A0A290WPI2 214-803); experiment: SEC; purified Vip3 protein digested overnight with H. zea gut fluid (50 mM MOPS pH 10, 30 °C), stopped with protease inhibitors, then analytical SEC on TSKgel SuperSW3000 in 50 mM sodium phosphate pH 7.0 with 250 mM NaCl; size from retention time; settings: both partners purified
T1 construct: Vip3Bc1, GenBank MF543028, product from the cleavage 210NVTK/EVIE (processed at 214Glu); source: Vip3Bc1 from Pseudomonas fluorescens, purified, then digested overnight with H. zea gut enzymes
T1 sequence: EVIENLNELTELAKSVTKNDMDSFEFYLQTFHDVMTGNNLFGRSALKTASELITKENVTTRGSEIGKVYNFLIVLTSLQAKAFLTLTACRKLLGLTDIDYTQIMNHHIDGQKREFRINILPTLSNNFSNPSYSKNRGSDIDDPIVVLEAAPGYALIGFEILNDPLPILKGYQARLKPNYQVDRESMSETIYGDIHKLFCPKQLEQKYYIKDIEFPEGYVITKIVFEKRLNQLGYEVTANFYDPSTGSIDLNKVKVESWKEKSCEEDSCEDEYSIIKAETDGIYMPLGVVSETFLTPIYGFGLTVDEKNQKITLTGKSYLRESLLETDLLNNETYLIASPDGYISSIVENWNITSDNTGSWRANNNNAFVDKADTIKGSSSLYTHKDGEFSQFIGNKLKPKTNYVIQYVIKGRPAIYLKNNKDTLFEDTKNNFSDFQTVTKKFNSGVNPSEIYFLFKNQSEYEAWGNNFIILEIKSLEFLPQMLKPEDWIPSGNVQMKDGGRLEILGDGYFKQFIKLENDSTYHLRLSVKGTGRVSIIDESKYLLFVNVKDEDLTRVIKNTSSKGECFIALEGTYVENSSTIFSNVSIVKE

[8] = biological target: the molecule itself; experiment: as above

“C-terminal ~65 kDa domain of Vip3Ab1, expressed from Leu222 (domain or fragment)” gave a stoichiometry N [1] of 2.

For Vip3Ab1 (natural protein), the stoichiometry N [2] was 4.

Work on “Vip3Ab1 after overnight processing with H. zea midgut enzymes (~20 kDa and ~65 kDa products together) (complex)” yielded a stoichiometry N [3] of 4.

In the case of “Vip3_AB chimera (N-terminal domain of Vip3Ab1 and C-terminal domain of Vip3Bc1) (from UniProt A0A290WPI2 224-803)”, the stoichiometry N [4] is reported as 4.

With “Vip3_BA chimera (N-terminal domain of Vip3Bc1 and C-terminal domain of Vip3Ab1) (from UniProt A0A290WPI2 2-223)” the percent tetrameric [5] was 50% and the stoichiometry N [5] was 4.

B1: C-terminal ~65 kDa domain of Vip3Bc1, expressed from Leu222 (domain or fragment)
chain: LTELAKSVTKNDMDSFEFYLQTFHDVMTGNNLFGRSALKTASELITKENVTTRGSEIGKVYNFLIVLTSLQAKAFLTLTACRKLLGLTDIDYTQIMNHHIDGQKREFRINILPTLSNNFSNPSYSKNRGSDIDDPIVVLEAAPGYALIGFEILNDPLPILKGYQARLKPNYQVDRESMSETIYGDIHKLFCPKQLEQKYYIKDIEFPEGYVITKIVFEKRLNQLGYEVTANFYDPSTGSIDLNKVKVESWKEKSCEEDSCEDEYSIIKAETDGIYMPLGVVSETFLTPIYGFGLTVDEKNQKITLTGKSYLRESLLETDLLNNETYLIASPDGYISSIVENWNITSDNTGSWRANNNNAFVDKADTIKGSSSLYTHKDGEFSQFIGNKLKPKTNYVIQYVIKGRPAIYLKNNKDTLFEDTKNNFSDFQTVTKKFNSGVNPSEIYFLFKNQSEYEAWGNNFIILEIKSLEFLPQMLKPEDWIPSGNVQMKDGGRLEILGDGYFKQFIKLENDSTYHLRLSVKGTGRVSIIDESKYLLFVNVKDEDLTRVIKNTSSKGECFIALEGTYVENSSTIFSNVSIVKE
notes: Vip3Bc1, GenBank MF543028, beginning at Leu222; also called C-terminus of Vip3Bc1; C-terminal region of Vip3Bc1; source: Pseudomonas fluorescens, purified
In the case of B1, the “stoichiometry N” value [6] is reported as 2.

B2: Vip3Bc1 (natural protein)
chain: VQKWMQRMIIVDNNKLNVRALPSFIDYFNGIYGFATGIKDIMGMIFKTDTGGSNLTLDEILKNQNLLNDISGKLDGINGDLGDLIAQGNLNSELAKELLKISNEQNQMLNHVNAQLNAINSTLNIYLPKITSMLNEVMKQNHVLSLQIEFLSKQLQEISDKLDIINLNVLINSTLTEITPAYQRIKYVNEKFDELTSTVEKNPKSYQDNVTKEVIENLNELTELAKSVTKNDMDSFEFYLQTFHDVMTGNNLFGRSALKTASELITKENVTTRGSEIGKVYNFLIVLTSLQAKAFLTLTACRKLLGLTDIDYTQIMNHHIDGQKREFRINILPTLSNNFSNPSYSKNRGSDIDDPIVVLEAAPGYALIGFEILNDPLPILKGYQARLKPNYQVDRESMSETIYGDIHKLFCPKQLEQKYYIKDIEFPEGYVITKIVFEKRLNQLGYEVTANFYDPSTGSIDLNKVKVESWKEKSCEEDSCEDEYSIIKAETDGIYMPLGVVSETFLTPIYGFGLTVDEKNQKITLTGKSYLRESLLETDLLNNETYLIASPDGYISSIVENWNITSDNTGSWRANNNNAFVDKADTIKGSSSLYTHKDGEFSQFIGNKLKPKTNYVIQYVIKGRPAIYLKNNKDTLFEDTKNNFSDFQTVTKKFNSGVNPSEIYFLFKNQSEYEAWGNNFIILEIKSLEFLPQMLKPEDWIPSGNVQMKDGGRLEILGDGYFKQFIKLENDSTYHLRLSVKGTGRVSIIDESKYLLFVNVKDEDLTRVIKNTSSKGECFIALEGTYVENSSTIFSNVSIVKE
notes: Vip3Bc1, vegetative insecticidal protein of Bacillus thuringiensis, GenBank MF543028; expressed with only the first methionine removed (N-terminus VQKWM at 2); Gene was synthesized, codon biased for maize; source: Pseudomonas fluorescens, purified (ammonium sulfate precipitation, anion exchange)
For B2, the “stoichiometry N” value [6] was 4.

B3: ~20 kDa N-terminal product of Vip3Bc1 after gut enzyme processing (domain or fragment)
chain: ALPSFIDYFNGIYGFATGIKDIMGMIFKTDTGGSNLTLDEILKNQNLLNDISGKLDGINGDLGDLIAQGNLNSELAKELLKISNEQNQMLNHVNAQLNAINSTLNIYLPKITSMLNEVMKQNHVLSLQIEFLSKQLQEISDKLDIINLNVLINSTLTEITPAYQRIKYVNEKFDELTSTVEKNPKSYQDNVTK
notes: Vip3Bc1, GenBank MF543028, product between the cleavage at 21Ala and the cleavage 210NVTK/EVIE (processed at 214Glu); source: Vip3Bc1 from Pseudomonas fluorescens, purified, then digested overnight with H. zea gut enzymes
B3: binds [7].

B4: Vip3Bc1 after overnight processing with H. zea midgut enzymes (~20 kDa and ~65 kDa products together) (complex)
chain 1: B3 chain
chain 2: T1 sequence
notes: Vip3Bc1 ~20 kDa product, as m9; Vip3Bc1 ~65 kDa product, as m10; Vip3Bc1 was processed much more slowly than Vip3Ab1; also called processed Vip3Bc1; source: Vip3Bc1 from Pseudomonas fluorescens, purified, then digested overnight with H. zea gut enzymes; copies: 4 + 4
With B4 the “stoichiometry N” value [8] was 4.

— paper PMC5593919, “Functional characterization of Vip3Ab1 and Vip3Bc1: Two novel insecticidal proteins with differential activity against lepidopteran pests” (Scientific Reports, 2017)
